Laboratory results published in PMC13436963.
Each block holds one molecule with its values, some of them ahead of it.

Experiments:
[1] = molecular target: EGFP-tagged full-length Drosophila Notch [Drosophila melanogaster]; test: luciferase-coupled co-immunoprecipitation (GFP-trap); conditions: S2 cells, Notch-GFP WT, n=4, parent: 1, read off a plot
[2] = molecular target: T1, Drosophila Notch LNR domain F1563A fused to split firefly luciferase fragments, P07207; test: split-luciferase complementation assay; conditions: chain shown with the change; S2 cells; bar labelled 'F1563A + F1563A'; n=5; parent: 1.0; read off a plot
T1 chain: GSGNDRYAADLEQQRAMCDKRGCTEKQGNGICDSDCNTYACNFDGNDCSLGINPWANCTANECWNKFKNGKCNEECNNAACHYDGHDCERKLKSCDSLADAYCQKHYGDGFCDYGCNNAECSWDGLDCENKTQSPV

[3] = molecular target: T2, Drosophila Notch LNR domain H1570A fused to split firefly luciferase fragments, P07207; test: split-luciferase complementation assay; conditions: chain shown with the change; S2 cells; bar labelled 'H1570A + H1570A'; n=5; parent: 1.0; read off a plot
T2 chain: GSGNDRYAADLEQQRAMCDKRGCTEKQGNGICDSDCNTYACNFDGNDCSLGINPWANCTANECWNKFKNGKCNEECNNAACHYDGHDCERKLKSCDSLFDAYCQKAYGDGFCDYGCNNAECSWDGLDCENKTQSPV

B1: Drosophila Notch LNR domain fused to split firefly luciferase fragments (LNR–NLuc and LNR–CLuc), P07207 F1563A (N-Luc copy); F1563A (C-Luc copy) (protein)
chain: GSGNDRYAADLEQQRAMCDKRGCTEKQGNGICDSDCNTYACNFDGNDCSLGINPWANCTANECWNKFKNGKCNEECNNAACHYDGHDCERKLKSCDSLADAYCQKHYGDGFCDYGCNNAECSWDGLDCENKTQSPV
ratio to parent [2]: 0.96

B2: Drosophila Notch LNR domain fused to split firefly luciferase fragments (LNR–NLuc and LNR–CLuc), P07207 H1570A (N-Luc copy); H1570A (C-Luc copy) (protein)
chain: GSGNDRYAADLEQQRAMCDKRGCTEKQGNGICDSDCNTYACNFDGNDCSLGINPWANCTANECWNKFKNGKCNEECNNAACHYDGHDCERKLKSCDSLFDAYCQKAYGDGFCDYGCNNAECSWDGLDCENKTQSPV
ratio to parent [3]: 0.87

Continued, values first:

ratio to parent ([1]; LNR-Luc F1563A): 1.1
Molecule: luciferase-tagged Drosophila Notch LNR domain (residues G1465 to V1600) mutant F1563A [Drosophila melanogaster] / EGFP-tagged full-length Drosophila Notch [Drosophila melanogaster] chain 1 F99A

ratio to parent ([1]; LNR-Luc H1570A): 0.97
Molecule: luciferase-tagged Drosophila Notch LNR domain (residues G1465 to V1600) mutant H1570A [Drosophila melanogaster] / EGFP-tagged full-length Drosophila Notch [Drosophila melanogaster] chain 1 H106A
